Values of other authors as cited in paper PMC9811451.

Biological target: ACE2 (Homo sapiens) (UniProt Q9BYF1)
Sequence (Q9BYF1 18-740): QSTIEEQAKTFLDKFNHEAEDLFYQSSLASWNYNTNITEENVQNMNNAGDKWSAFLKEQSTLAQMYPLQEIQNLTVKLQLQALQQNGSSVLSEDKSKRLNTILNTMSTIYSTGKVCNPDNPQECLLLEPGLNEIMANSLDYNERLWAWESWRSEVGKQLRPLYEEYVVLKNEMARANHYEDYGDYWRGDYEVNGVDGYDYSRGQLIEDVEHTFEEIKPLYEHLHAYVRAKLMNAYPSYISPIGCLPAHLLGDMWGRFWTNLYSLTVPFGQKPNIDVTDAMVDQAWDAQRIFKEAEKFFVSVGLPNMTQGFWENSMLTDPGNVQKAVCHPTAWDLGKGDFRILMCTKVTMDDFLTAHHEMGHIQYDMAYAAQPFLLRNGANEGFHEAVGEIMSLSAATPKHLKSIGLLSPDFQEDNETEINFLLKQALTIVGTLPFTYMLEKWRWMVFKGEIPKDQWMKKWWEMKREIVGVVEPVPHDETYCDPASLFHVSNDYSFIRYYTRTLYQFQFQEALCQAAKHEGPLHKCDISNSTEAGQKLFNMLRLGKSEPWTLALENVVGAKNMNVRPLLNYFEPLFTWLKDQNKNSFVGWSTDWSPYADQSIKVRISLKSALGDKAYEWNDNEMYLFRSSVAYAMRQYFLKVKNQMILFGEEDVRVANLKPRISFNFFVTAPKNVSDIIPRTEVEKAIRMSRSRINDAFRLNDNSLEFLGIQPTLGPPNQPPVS

## Spike (from UniProt P0DTC2)
  Kd: 4 nM
